Biological target: α‐synuclein (UniProt P37840)

Sequence of HspA8 (P11142 whole entry): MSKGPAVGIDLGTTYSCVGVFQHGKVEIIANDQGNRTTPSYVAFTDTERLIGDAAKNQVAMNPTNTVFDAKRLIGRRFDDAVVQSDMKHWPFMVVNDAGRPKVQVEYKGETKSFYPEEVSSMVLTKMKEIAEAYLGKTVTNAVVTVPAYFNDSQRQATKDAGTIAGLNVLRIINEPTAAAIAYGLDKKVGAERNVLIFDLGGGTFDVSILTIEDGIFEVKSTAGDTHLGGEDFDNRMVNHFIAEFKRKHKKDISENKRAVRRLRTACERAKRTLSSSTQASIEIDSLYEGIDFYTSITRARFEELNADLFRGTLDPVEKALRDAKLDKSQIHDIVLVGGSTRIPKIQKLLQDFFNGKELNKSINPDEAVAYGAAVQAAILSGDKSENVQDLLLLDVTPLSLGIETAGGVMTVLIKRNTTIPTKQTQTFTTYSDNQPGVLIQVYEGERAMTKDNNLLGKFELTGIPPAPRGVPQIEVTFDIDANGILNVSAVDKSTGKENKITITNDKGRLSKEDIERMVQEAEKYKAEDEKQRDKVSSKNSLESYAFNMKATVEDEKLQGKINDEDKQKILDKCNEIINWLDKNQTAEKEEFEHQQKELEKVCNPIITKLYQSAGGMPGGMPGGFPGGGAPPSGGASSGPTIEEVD
Sequence of DNAJB1 (P25685 whole entry): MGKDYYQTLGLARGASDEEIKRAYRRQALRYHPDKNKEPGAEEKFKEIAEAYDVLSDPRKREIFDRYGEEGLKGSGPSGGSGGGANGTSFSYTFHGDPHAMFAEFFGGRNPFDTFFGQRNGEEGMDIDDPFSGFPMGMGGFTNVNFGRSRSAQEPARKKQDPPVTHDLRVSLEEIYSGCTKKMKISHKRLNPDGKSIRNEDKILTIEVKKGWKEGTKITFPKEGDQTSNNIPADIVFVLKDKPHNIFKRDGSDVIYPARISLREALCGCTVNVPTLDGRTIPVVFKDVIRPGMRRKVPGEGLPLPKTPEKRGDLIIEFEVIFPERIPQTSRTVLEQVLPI

Thioflavin‐T fluorescence: elongation of α‐synuclein seeds (2 μM) by monomeric α‐synuclein (0–20 μM) with and without the Hsp70 chaperones (2 μM HspA8, 1 μM DNAJB1, 0.2 μM Hsp110), 30°C [fold] | Substance
3 | DNAJB1 (from UniProt P25685 1-340) (natural protein)
3 | HspA8 (from UniProt P11142 1-646) (natural protein)

Reference: PMC12432404
